Experimental data published in patent publication US20070048315A1 (SCHERING, published 2007).
Where “and” joins values, the source holds several entries; their conditions need not be identical. Identical values can stand only once.

T1: "Non-linked" human IL-23 (human p40 coexpressed in 293T cells with human p19:FLAG-tag peptide) (human, UniProt P29460 23-328)
T1 sequence 1: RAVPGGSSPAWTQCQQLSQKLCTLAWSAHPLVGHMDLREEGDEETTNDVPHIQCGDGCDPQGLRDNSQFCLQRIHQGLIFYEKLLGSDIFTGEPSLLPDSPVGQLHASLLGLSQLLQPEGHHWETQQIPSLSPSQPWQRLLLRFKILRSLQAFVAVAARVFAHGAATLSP
T1 sequence 2: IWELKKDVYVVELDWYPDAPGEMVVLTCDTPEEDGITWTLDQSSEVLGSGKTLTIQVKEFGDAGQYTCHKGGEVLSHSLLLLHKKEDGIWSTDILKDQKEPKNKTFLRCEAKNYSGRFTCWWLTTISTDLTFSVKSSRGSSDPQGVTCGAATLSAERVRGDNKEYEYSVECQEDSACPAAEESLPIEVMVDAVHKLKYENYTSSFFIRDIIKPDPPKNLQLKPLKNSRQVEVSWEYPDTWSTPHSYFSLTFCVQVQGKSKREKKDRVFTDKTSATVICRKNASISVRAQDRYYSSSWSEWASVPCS

T2: non-tagged, non-linked native human IL-23p19/p40 coexpressed in SF9 cells (eBioscience CAT No. 34-8239) (human, UniProt P29460 23-328)
T2 sequence 1: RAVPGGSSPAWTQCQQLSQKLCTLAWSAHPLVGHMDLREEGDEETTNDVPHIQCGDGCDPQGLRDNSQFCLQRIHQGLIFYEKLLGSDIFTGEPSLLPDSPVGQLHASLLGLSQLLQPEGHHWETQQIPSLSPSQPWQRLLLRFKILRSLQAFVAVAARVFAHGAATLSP
T2 sequence 2: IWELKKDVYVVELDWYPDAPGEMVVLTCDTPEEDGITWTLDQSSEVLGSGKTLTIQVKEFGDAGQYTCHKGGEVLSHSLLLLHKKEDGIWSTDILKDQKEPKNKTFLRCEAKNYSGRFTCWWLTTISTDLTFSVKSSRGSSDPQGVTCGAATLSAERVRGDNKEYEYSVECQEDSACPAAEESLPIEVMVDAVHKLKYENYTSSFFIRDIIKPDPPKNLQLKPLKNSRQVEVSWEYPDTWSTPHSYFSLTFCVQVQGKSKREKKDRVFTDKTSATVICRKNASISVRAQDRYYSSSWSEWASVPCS

B1: mouse anti-human IL-23p19 antibody 7G10 (antibody, V domains shown)
VH: EVQLQQSGPELVKPGASVKMSCKASGYTFTSNVMHWVKQKPGQGLEWIGYINPYNDGTKYNEKFKGKATLTSDKSSSTAYMELSSLTSEDSAVYYCARNWDVAYWGQGTLVTVSA
VL: DIVMTQSPATLSVTPGDRVSLSCRASQSISDYLHWYRQKSHESPRLLIKYASQSISGIPSRFSGSGSGSDFTLSINSVEPEDVGVYYCQNGHSFPFTFGSGTKLEIKR
B2: mouse anti-human IL-23p19 antibody 6H12 (antibody, V domains shown)
VH: EVHLQQSGPELVKPGASVKMSCKASGYTFNRYLIHWVKQKPGQGLEWIGYINPNNDGTNYNEKFKGKATLTSDKSSSTAYMELSSLTSEDSAVYYCAANWDQAYWGQGTLVTVSA
VL: DIVMTQSPATLSVTPGDRVSLSCRASQSISDYLHWYQQKSHESPRLLIKYTSQSISGIPSRFSGSGSGSDFTLSINSVEPEDVGVYYCQNGHSFPFTFGSGTKLEIKR
B3: humanized anti-human IL-23p19 antibody hum7G10 (antibody, human IgG1, kappa, V domains shown)
VH: QVQLVQSGAEVKKPGASVKVSCKASGYTFTSNVMHWVRQAPGQGLEWMGYINPYNDGTKYNEKFKGRVTMTTDTSTSTAYMELRSLRSDDTAVYYCARNWDVAYWGQGTLVTVSS
VL: DIQMTQSPSSLSASVGDRVTITCRASQSISDYLHWYQQKPGKAPKLLIYYASQSISGVPSRFSGSGSGTDFTLTISSLQPEDFATYYCQNGHSFPFTFGQGTKVEIKR
B4: humanized anti-human IL-23p19 antibody hum6H12 (antibody, human IgG1, kappa, V domains shown)
VH: QVQLVQSGAEVKKPGASVKVSCKASGYTFNRYLIHWVRQAPGQGLEWMGYINPNNAGTNYNEKFKGRVTMTTDTSTSTAYMELRSLRSDDTAVYYCARNWDQAYWGQGTLVTVSS
VL: DIQMTQSPSSLSASVGDRVTITCRASQSISDYLHWYQQKPGKAPKLLIYYTSQSISGVPSRFSGSGSGTDFTLTISSLQPEDFATYYCQNGHSFPFTFGQGTKVEIKR
B5: mouse anti-human IL-23p19 antibody 13B5 (antibody, V domains shown)
VH: EVQLQQSGPELVKPGASVKMSCKASGYTFTRYLMHWVKQKPGQGLEWIGYINPYNDGTNYNEKFKGKATLTSDKSSSTAYMELSSLTSEDSAVYYCARNWDVGGYWGQGTTLTVSS
VL: DIVMTQSPATLSVTPGDRVSLSCRASQSISDYLHWYQQKSHESPRLLIKYASQSISGIPSRFSGSGSGSDFTLSINSVEPEDVGVYYCQNGHSFPFTFGSGTKLEIKR
B6: mouse anti-human IL-23p19 antibody 33B12 (antibody, V domains shown)
VH: QVQLQQSGAELARPGASVKLSCKASGYTFTSYSLKWVKQRTGQGLEWIGEIHPRSGNTHYNEKFKGKATLTADKSSSTAYMDLRSLTSEDSAVYFCATNWDLGYWGQGTTITVSS
VL: DIVLTQSPATLSVTPGDRVSLSCRASQSISDYLHWFQQRSHESPRLLIKYASQSISGIPSRFSGSGSGSDFTLSINSVEPEDVGVYYCQNGHSFPFTFGSGTKLEIKR
B7: mouse anti-human IL-23p19 antibody 39G2 (antibody, V domains shown)
VH: QVQLQQPGAELVRPGASVKLSCKASGYSFTSSWMNWVKQRPGQGLEWIGMIHPSDSETRTNQKFKDKATLTVDKSSSTAYMQLSSPTSEDSAVYYCARGMITAPTVYWGQGTLVTVSA
VL: DIVLTQSPASLAVSLGQRATISCRASKSVSTSAYSYFHWYQQKPGQPPKLLIYLASNLESGVPARFSGSGSGTDFTLNIHPVEEEDAATYYCQHSRELPWTFGGGTKLEITP
B8: mouse anti-human IL-23p19 antibody 35F12 (antibody, V domains shown)
VH: QVQLQQPGAELMRPGASVRLSCKASGYSFTTSWMNWVKQRPGQGLEWIGMIHPSDSETRLNQNFKDKATLTVDRSSSTAYMQLNSPTSEDSAVYYCARGMITAPSVYWGQGTLVTVSA
VL: DIVLTQSPASLAVSLGQRATISCRASKSVSTSAYSYFHWYQQKPGQPPKLLIYLASNLESGVPARFSGSGSGTDFTLNIHPVEEGDAATYYCQHSRELPWTFGGGTKLEITR
B9: mouse anti-human IL-23p19 antibody 3D7 (antibody, V domains shown)
VH: QVQLQQSGPELVKPGASVKISCKASGYSFTSYYIHWVKQRPGQGLEWIGWIFPGSGNTKYNEKFKGKATLTADTSSTTAYMQLSSLTSEASAVYFCAREGLHYFGLYAMDYWGHGTSVTVSS
VL: DIQMTQTTSSLSASLGDRVTISCSASQGISNYLNWFQQKPDGTVKLLIYYTSSLHSGVPSRFSGSGSGTDYSLTISNLEPEDIATYYCQQYSKLPYTFGGGTKLEIKR

Key:
Experiment in all cases: cell-based or functional assay
[1] = target: "Elastikine" human IL-23 (single chain FLAG-tag peptide:GLU-tag peptide:human p40:elasti-linker:human p19, … (human, UniProt P29460 23-328))
[2] = target: T1, "Non-linked" human IL-23 (human p40 …)
[3] = target: T2, non-tagged, non-linked native human …
[4] = target: "Elastikine" human IL-23 (single chain FLAG-tag peptide:GLU-tag peptide:human p40:elasti-linker:human p19, … (human, UniProt P29460 23-328)); remark: listed apart in the source

IC50 for blocking of Ba/F3 cell proliferation [1] | IC50 for blocking of Ba/F3 cell proliferation [2] [nM] | IC50 for blocking of Ba/F3 cell proliferation [3] | IC50 for blocking of Ba/F3 cell proliferation [4] [nM] | Binder
22 nM and 18 nM | 3000 |  |  | B1
11 nM and 9 nM | 1500 | 1300 nM and 500 nM |  | B2
 | 10000 | 7800 nM | 29 | B3
 | 4000 | 3200 nM | 27 | B4
7 nM and 5 nM | 113 | 31 nM |  | B5
4 nM and 3 nM | 193 | 57 nM |  | B6
9 nM and 5 nM | 67 | 11 nM |  | B7
15 nM and 5 nM | 73 | 12 nM |  | B8
3 nM | 37 | 2 nM |  | B9
